Test in all cases: purified protein
Substrate in series [1]: NC(=O)C1=CN([C@@H]2O[C@H](COP(=O)(O)OP(=O)(O)OC[C@H]3O[C@@H](n4cnc5c(N)ncnc54)[C@H](OP(=O)(O)O)[C@@H]3O)[C@@H](O)[C@H]2O)C=CC1
The settings on record: apparent, Orange I 30 μM, potassium phosphate pH 6.8, room temperature (general assay).

Substrate in series [2]: O=S(=O)(O)c1ccc(N=Nc2ccc(O)c3ccccc23)cc1
As to conditions: apparent, co-substrate NADPH 1 mM, potassium phosphate pH 6.8, room temperature (general assay).

Substrate in series [3]: NC(=O)C1=CN([C@@H]2O[C@H](COP(=O)(O)OP(=O)(O)OC[C@H]3O[C@@H](n4cnc5c(N)ncnc54)[C@H](O)[C@@H]3O)[C@@H](O)[C@H]2O)C=CC1
As to conditions: apparent, Orange I 30 μM, potassium phosphate pH 6.8, room temperature (general assay).

As a reminder, the Km is the concentration of substrate that gives half-maximal velocity. As usually defined, the Vmax is the rate approached at saturating substrate.

B1: AzoB (Pigmentiphaga kullae) (protein)
chain: MNIAIIGATGNVGSRLVNEALARGHHVTAIARHASRLAARPGLDTLDIDLADGAKLAGALRGKDAAISSVRFATSPLAAVLGPVRQAGLRRLLVVGGAGSLEVAPGAALVDTPTFPAEYKPEALAGRDWLNALRTEKDLDWTFLSPSALFVPGERTGTFRLGGDTLLTAADGRSWISMEDFAIAMLDEVEKPAHTGRRFTVGY
For B1, the Km in series [1] worked out at 1.0 µM; in series [2], 3.0 µM; in series [3] it was 170 µM. Besides, the Vmax in series [1] came out at 33 µmol/min/mg; in series [2], 36 µmol/min/mg; in series [3], 17 µmol/min/mg.

The values above are taken from publication PMC2858024, “Identification and molecular characterization of a novel flavin-free NADPH preferred azoreductase encoded by azoB in Pigmentiphaga kullae K24” (BMC Biochemistry, 2010).
